# Literature values as cited in PMC6868133 (Scientific Reports, 2019).
# Where two headings read alike, the source gives them in different places.
# Columns and labels:
# [1] = test system: fasting plasma glucose levels; conditions: humans
# From the text: The goal of the current study was to evaluate the pharmacokinetic properties of a single-dose of PT320 in healthy nonhuman primates. […] Systemic Exenatide ...
# [2] = human, in vivo
# [3] = rhesus monkey, in vivo, sc
# [4] = Long-Acting (> 24 hr), ref supplement [3-5]
substance,measurement,setting,value
Exenatide,minimally effective concentration (level required to reduce fasting plasma glucose levels),[1],approximately 50 pg/ml
same,patients with higher-titer antibodies (≥625),[2],5%
same,patients with low anti-Exenatide antibody titers (≤125),[2],32%
same,terminal disappearance half-life from plasma,[3],0.78 to 1.94 h
lixisenatide,Half Life (T1/2),"Short-Acting (< 24 hr), ref supplement [1,2]",3 h
same,T1/2,"short-acting GLP-1R agonist, administered once daily",3 h
albiglutide,Half Life (T1/2),[4],140 to 170 h
same,T1/2,long-acting GLP-1R agonists,140 to 170 h
Semaglutide,Half Life (T1/2),[4],140 to 170 h
dulaglutide,Half Life (T1/2),[4],96 h
same,T1/2,long-acting GLP-1R agonists,96 h
